For five molecules, binding result and Kd results are on record in publication PMC12886537, “Dual-mode aptamer-driven biosensing platform for ultrasensitive and mutation-resilient detection of the SARS-CoV-2 nucleocapsid protein”.

In data set [1] the target is SARS-CoV N protein (SARS-CoV, UniProt P59595 1-422). As to conditions: protein: commercial, chain copies: 2.
The target of data set [2] is T1, SARS-CoV-2 nucleocapsid (N) protein (SARS-CoV-2 (original/prototype), UniProt P0DTC9 1-419). The experiment in a line: SPR; single concentration. The note with it: protein: recombinant; tags: His; chain copies: 2. On the technique in general: SPR reads the build-up and loss of mass on a sensor chip optically.
Data set [3] concerns the target T1, SARS-CoV-2 nucleocapsid (N) protein. The data set is described as follows: ELONA. As to conditions: protein: recombinant; tags: His; chain copies: 2; label: biotin (ELONA); 5'-FAM (flow cytometry, confocal).

B1: NP14a (structured_DNA)
DNA: TTTTTAACACGACTCTCCTGTGGCATTGCCTGTCGTGCCATG
In the case of B1, in data set [1], the binding result was “binds”.

B2: NP1 (ssDNA)
DNA: TTTTTAACACGACCTCACTGTGCCGGCCACAGCTCACCACAGTGGGCCCATG
As for B2, the binding result in data set [2] was “binds”.

B3: NP14b (structured_DNA)
DNA: TTTTTAACACGACTCTCCTGTGGCCAGCGAACTGATGTGCCATG
B3: the binding result in data set [1] is on record as “binds”.

B4: NP11 (ssDNA)
DNA: TTTTTAAGCCCACTTTTCTGTGCCGGGCACAGCATGGGCTTGTCGTGCCATG
For the molecule B4, the binding result in data set [2] is recorded as “binds”.

B5: NP14 (structured_DNA)
DNA: TTTTTAACACGACTCTCCTGTGGCCAGCGAACTGATTGCCTGTCGTGCCATG
In the case of B5, the Kd (in general, the equilibrium constant for the complex coming apart) amounted to 3.45 nM in data set [1] (label: biotin (ELONA), 5'-FAM (flow cytometry, confocal)) and 3.68 nM in data set [3].
